Experimental data reported in the Human Domainome abundance scans (Beltran et al. 2025).
± gives the uncertainty stated by the source.

B1: Ventral anterior homeobox 1, residues 102 to 157; numbered along this chain, Q5SQQ9 (parent)
chain: RTRTSFTAEQLYRLEMEFQRCQYVVGRERTELARQLNLSETQVKVWFQNRRTKQKK
B2: Intersectin-1, residues 909 to 971; numbered along this chain, Q15811 (parent)
chain: QGEKVEGLQAQALYPWRAKKDNHLNFNKNDVITVLEQQDMWWFGEVQGQKGWFPKSYVKLISG

Variants of: B1
Assay: abundance fitness (aPCA) (normalised: wild type 0, dead -1); higher = more abundant; growth selection in yeast, the domain comes from the species named
Details: Homo sapiens

Variant | abundance fitness
N49E | 0.297 ± 0.15
R27L | -0.049 ± 0.13
R27K | -0.045 ± 0.2
R27T | 0.013 ± 0.15
R27S | 0.18 ± 0.15
R27F | -0.141 ± 0.37
A33H | -0.925 ± 0.38
A33Y | -0.692 ± 0.25
A33W | -0.483 ± 0.19
A33N | -0.897 ± 0.35
E40R | -0.57 ± 0.12
E40H | -1.01 ± 0.38
E40V | -0.315 ± 0.12
E40I | -0.557 ± 0.26
E40Y | -0.712 ± 0.41
E40C | -0.226 ± 0.22
E40M | -0.852 ± 0.25
E40S | -0.283 ± 0.14
E31G | -0.454 ± 0.12
E31C | -0.683 ± 0.22
E31V | -0.315 ± 0.14
E31I | -0.399 ± 0.28
E31P | -0.662 ± 0.24
E31W | -0.721 ± 0.21
E31S | -0.386 ± 0.15
V25P | -0.29 ± 0.18

Variant | abundance fitness
V25A | 0.042 ± 0.14
V25N | -0.326 ± 0.42
V25E | 0.204 ± 0.17
V25W | -0.633 ± 0.16
S39N | 0.063 ± 0.25
S39W | -0.959 ± 0.24
S39H | -0.334 ± 0.17
S39P | 0.033 ± 0.19
S39R | -0.417 ± 0.11
S39M | -0.595 ± 0.2
S39G | -0.375 ± 0.11
L11H | 0.005 ± 0.12
L11Q | 0.231 ± 0.17
L11I | -0.059 ± 0.21
L11A | -0.075 ± 0.096
L11K | -0.274 ± 0.26
E15G | -0.823 ± 0.14
E15C | -0.803 ± 0.32
E15A | -0.876 ± 0.17
R34I | -0.325 ± 0.48
R34M | -0.256 ± 0.26
R34Y | -0.655 ± 0.41
R34P | -0.907 ± 0.49
R34V | -0.074 ± 0.12
R34L | -0.273 ± 0.18
R50S | -0.451 ± 0.12

Variant | abundance fitness
R50E | 0.009 ± 0.19
R50L | -0.925 ± 0.2
R50V | -0.943 ± 0.18
L38T | -0.411 ± 0.16
L38F | -0.72 ± 0.39
L38Q | -0.91 ± 0.2
L38D | -0.818 ± 0.24
L38I | -0.307 ± 0.33
L38V | 0.027 ± 0.094
L38H | -0.854 ± 0.43
L38G | -0.822 ± 0.11
L38R | -0.576 ± 0.11
R20V | -0.162 ± 0.12
R20C | -0.303 ± 0.18
R20M | -0.001 ± 0.17
R20E | -0.261 ± 0.25
R20K | -0.428 ± 0.24
T4L | 0.205 ± 0.13
T4D | -0.14 ± 0.2
T4N | 0.033 ± 0.23
T4A | -0.188 ± 0.17
T4P | -0.074 ± 0.24
T4M | 0.107 ± 0.23
R1M | 0.083 ± 0.39
R1E | -0.025 ± 0.46
F6V | -0.105 ± 0.14

Variant | abundance fitness
F6T | -0.556 ± 0.16
F6L | -0.029 ± 0.1
F6E | -0.559 ± 0.44
K56L | -0.205 ± 0.24
K56G | 0.324 ± 0.18
K56I | 0.003 ± 0.39
K56A | -0.291 ± 0.3
K56C | 0.148 ± 0.37
K56E | 0.12 ± 0.33
T52H | -0.279 ± 0.23
T52E | 0.139 ± 0.16
T52Y | -0.137 ± 0.3
T52P | -0.558 ± 0.19
T52M | 0.194 ± 0.18
K53A | 0.044 ± 0.12
K53C | 0.202 ± 0.18
K53T | 0.197 ± 0.16
G26E | -0.249 ± 0.24
G26W | -0.892 ± 0.3
G26V | -0.577 ± 0.13
G26Y | -0.342 ± 0.11
G26A | -0.155 ± 0.1
G26S | -0.151 ± 0.083
G26F | -0.278 ± 0.12
G26M | -0.351 ± 0.17
G26Q | -0.23 ± 0.19

Variant | abundance fitness
G26C | -0.547 ± 0.15
Q48T | -0.076 ± 0.26
Q48Y | -0.298 ± 0.28
Q48C | -0.051 ± 0.29
Q48G | -0.314 ± 0.15
Q35K | 0.093 ± 0.18
Q35I | -0.236 ± 0.2
Q35V | -0.265 ± 0.13
Q35G | -0.182 ± 0.1
Q35R | -0.028 ± 0.11
Q35E | -0.032 ± 0.17
E17W | -0.359 ± 0.2
E17S | -0.294 ± 0.16
R13V | -0.311 ± 0.15
R13A | 0.089 ± 0.12
R13F | -0.29 ± 0.18
R13H | -0.066 ± 0.15
R13N | -0.283 ± 0.2
C21E | -0.101 ± 0.2
C21V | -0.054 ± 0.17
C21K | -0.169 ± 0.31
C21S | -0.013 ± 0.17
C21Y | -0.404 ± 0.28
V45P | -0.545 ± 0.22
V45M | -0.148 ± 0.27
V45S | 0.158 ± 0.12

Variants of: B2
Assay: as above
Details: Homo sapiens

Variant | abundance fitness
QEEKVEGLQAQALYPWRAKKDNHLNFNKNDVITVLEQQDMWWFGEVQGQKGWFPKSYVKLISG [G2E] | -0.001 ± 0.17
QAEKVEGLQAQALYPWRAKKDNHLNFNKNDVITVLEQQDMWWFGEVQGQKGWFPKSYVKLISG [G2A] | -0.028 ± 0.12
QDEKVEGLQAQALYPWRAKKDNHLNFNKNDVITVLEQQDMWWFGEVQGQKGWFPKSYVKLISG [G2D] | -0.265 ± 0.086
QCEKVEGLQAQALYPWRAKKDNHLNFNKNDVITVLEQQDMWWFGEVQGQKGWFPKSYVKLISG [G2C] | -0.286 ± 0.16
RGEKVEGLQAQALYPWRAKKDNHLNFNKNDVITVLEQQDMWWFGEVQGQKGWFPKSYVKLISG [Q1R] | -0.299 ± 0.13
WGEKVEGLQAQALYPWRAKKDNHLNFNKNDVITVLEQQDMWWFGEVQGQKGWFPKSYVKLISG [Q1W] | -0.34 ± 0.16
KGEKVEGLQAQALYPWRAKKDNHLNFNKNDVITVLEQQDMWWFGEVQGQKGWFPKSYVKLISG [Q1K] | -0.496 ± 0.11
GGEKVEGLQAQALYPWRAKKDNHLNFNKNDVITVLEQQDMWWFGEVQGQKGWFPKSYVKLISG [Q1G] | -0.083 ± 0.12
VGEKVEGLQAQALYPWRAKKDNHLNFNKNDVITVLEQQDMWWFGEVQGQKGWFPKSYVKLISG [Q1V] | 0.158 ± 0.4
EGEKVEGLQAQALYPWRAKKDNHLNFNKNDVITVLEQQDMWWFGEVQGQKGWFPKSYVKLISG [Q1E] | -0.335 ± 0.31
CGEKVEGLQAQALYPWRAKKDNHLNFNKNDVITVLEQQDMWWFGEVQGQKGWFPKSYVKLISG [Q1C] | -0.06 ± 0.19
SGEKVEGLQAQALYPWRAKKDNHLNFNKNDVITVLEQQDMWWFGEVQGQKGWFPKSYVKLISG [Q1S] | -0.334 ± 0.36
MGEKVEGLQAQALYPWRAKKDNHLNFNKNDVITVLEQQDMWWFGEVQGQKGWFPKSYVKLISG [Q1M] | -0.208 ± 0.31
LGEKVEGLQAQALYPWRAKKDNHLNFNKNDVITVLEQQDMWWFGEVQGQKGWFPKSYVKLISG [Q1L] | -0.164 ± 0.17
TGEKVEGLQAQALYPWRAKKDNHLNFNKNDVITVLEQQDMWWFGEVQGQKGWFPKSYVKLISG [Q1T] | -0.111 ± 0.28
